biological target: T1, Soluble IGF-1R (R&D Systems, Cat. # 391-GR) (UniProt P08069 31-935, limits assumed); assay: phage ELISA ratios compared
T1 construct: extracellular domain; bought; also called sIGF-1R

Row | Binder | IGF-1R/IR ratio comparison
1 | LKDGFYDYFWQRLHLGS [NNRPγ-4-B11-IR] | 15.5
2 | RLFYCGIQALGANLGYSGCV [R20α-4-20A12-IR] | 16.6
3 | FYDAIDQLVRGSARAGGTRD [R20α-3-20E2-IR] | 12.9
4 | FRTLAAQHDSFYDWFDRQVSGAAGER [H2CA-3-C11-IGFR] | 2.1
5 | FFYDCLAALLQGVARYHDLCAVEIT [20C-4-C7-IGFR] | 21.8
6 | PGTDLGFYQALRCVVIQGACD [20E2B-2-B2-IGFR] | 8.1
7 | QGGSASFYDAIDRLLRMRIGG [20E2A-4-F11-IGFR] | 14.6
8 | IQQELTFYDLLHRLVRSELGS [20E2B-3-D2-IGFR] | 11.7
9 | NSRDGGFYLQLERLLGFPVTG [20E2B-3-D4-IGFR] | 9.6
10 | DRAFYNGLRDLVGAVYGAWD [R20α-4-20C11-IR] | 10.3
11 | VERSASSQDGNFYDWFVVQIR [A6S-2-D1-IR] | 2.6
12 | YSCGDGFYSLLSDLLGGQFRC [20E2B-4-H12-IGFR] | 12.8
13 | PDLHKGFYAQLAQLIRGQLLS [20E2B-3-E3-IGFR] | 13.1

The next lines start with the values.

Row | IGF-1R/IR ratio comparison | Binder
14 | 9.7 | PVGVQGFYEGLSRLVLGRGGW [20E2B-4-F8-IGFR]
15 | 17.3 | RGQSDAFYSGLWALIGLSDG [R20β-4-A6-IR]
16 | 27 | TFYSCLASLLTGTPQPNRGPWERCR [20C-3-G3-IGFR]
17 | 16.8 | GVRAMSFYDALVSVLGLGPSG [20E2B-1-A6-IGFR]
18 | 14.8 | VEGRGLFYDLLRQLLARRQNG [20E2B-3-C6-IGFR]
19 | 2.5 | TSEVQRRSQDNFYDWFVAQVA [A6S-3-E2-IR]
20 | 13.9 | KLHNLMFYYGLQRLVWGAGLG [20E2B-4-H3-IGFR]
21 | 9.7 | RFSTDGFYQYLLALVGGGPVG [20E2B-1-A11-IGFR]

biological target: T2, soluble human insulin receptor-immunoglobulin heavy chain chimera (human, UniProt P06213 28-956); assay: phage ELISA ratios compared
T2 construct: extracellular domain; Heterotetramer; also called IR; sIR-Fc; not shown: immunoglobulin heavy chain constant domains replacing the transmembrane and intr

Row | Binder | IR/IGF-1R ratio comparison
22 | LKDGFYDYFWQRLHLGS [NNRPγ-4-B11-IR] | 0.1
23 | RLFYCGIQALGANLGYSGCV [R20α-4-20A12-IR] | 0.1
24 | FYDAIDQLVRGSARAGGTRD [R20α-3-20E2-IR] | 0.1
25 | FRTLAAQHDSFYDWFDRQVSGAAGER [H2CA-3-C11-IGFR] | 0.5
26 | FFYDCLAALLQGVARYHDLCAVEIT [20C-4-C7-IGFR] | < 0.1
27 | PGTDLGFYQALRCVVIQGACD [20E2B-2-B2-IGFR] | 0.1
28 | QGGSASFYDAIDRLLRMRIGG [20E2A-4-F11-IGFR] | 0.1
29 | IQQELTFYDLLHRLVRSELGS [20E2B-3-D2-IGFR] | 0.1
30 | NSRDGGFYLQLERLLGFPVTG [20E2B-3-D4-IGFR] | 0.1
31 | DRAFYNGLRDLVGAVYGAWD [R20α-4-20C11-IR] | 0.1
32 | VERSASSQDGNFYDWFVVQIR [A6S-2-D1-IR] | 0.4
33 | YSCGDGFYSLLSDLLGGQFRC [20E2B-4-H12-IGFR] | 0.1
34 | PDLHKGFYAQLAQLIRGQLLS [20E2B-3-E3-IGFR] | 0.1

Second part, the binder after the results:

Row | IR/IGF-1R ratio comparison | Binder
35 | 0.1 | PVGVQGFYEGLSRLVLGRGGW [20E2B-4-F8-IGFR]
36 | 0.1 | RGQSDAFYSGLWALIGLSDG [R20β-4-A6-IR]
37 | < 0.1 | TFYSCLASLLTGTPQPNRGPWERCR [20C-3-G3-IGFR]
38 | 0.1 | GVRAMSFYDALVSVLGLGPSG [20E2B-1-A6-IGFR]
39 | 0.1 | VEGRGLFYDLLRQLLARRQNG [20E2B-3-C6-IGFR]
40 | 0.4 | TSEVQRRSQDNFYDWFVAQVA [A6S-3-E2-IR]
41 | 0.1 | KLHNLMFYYGLQRLVWGAGLG [20E2B-4-H3-IGFR]
42 | 0.1 | RFSTDGFYQYLLALVGGGPVG [20E2B-1-A11-IGFR]

From patent US6875741 (Novo Nordisk, dated 2005)
